IntAct's records for PubMed 32296183

B1: Transmembrane protein 43 (Homo sapiens), Q9BTV4 (parent)
chain: MAANYSSTSTRREHVKVKTSSQPGFLERLSETSGGMFVGLMAFLLSFYLIFTNEGRALKTATSLAEGLSLVVSPDSIHSVAPENEGRLVHIIGALRTSKLLSDPNYGVHLPAVKLRRHVEMYQWVETEESREYTEDGQVKKETRYSYNTEWRSEIINSKNFDREIGHKNPSAMAVESFMATAPFVQIGRFFLSSGLIDKVDNFKSLSLSKLEDPHVDIIRRGDFFYHSENPKYPEVGDLRVSFSYAGLSGDDPDLGPAHVVTVIARQRGDQLVPFSTKSGDTLLLLHHGDFSAEEVFHRELRSNSMKTWGLRAAGWMAMFMGLNLMTRILYTLVDWFPVFRDLVNIGLKAFAFCVATSLTLLTVAAGWLFYRPLWALLIAGLALVPILVARTRVPAKKLE
B2: Golgi SNAP receptor complex member 2 (Homo sapiens), O14653 (parent)
chain: MDPLFQQTHKQVHEIQSCMGRLETADKQSVHIVENEIQASIDQIFSRLERLEILSSKEPPNKRQNARLRVDQLKYDVQHLQTALRNFQHRRHAREQQERQREELLSRTFTTNDSDTTIPMDESLQFNSSLQKVHNGMDDLILDGHNILDGLRTQRLTLKGTQKKILDIANMLGLSNTVMRLIEKRAFQDKYFMIGGMLLTCVVMFLVVQYLT
partner: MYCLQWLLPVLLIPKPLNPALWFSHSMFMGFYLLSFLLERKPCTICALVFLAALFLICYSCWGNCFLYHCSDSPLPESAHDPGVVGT
B3: Very-long-chain enoyl-CoA reductase (Homo sapiens), Q9NZ01 (parent)
chain: MKHYEVEILDAKTREKLCFLDKVEPHATIAEIKNLFTKTHPQWYPARQSLRLDPKGKSLKDEDVLQKLPVGTTATLYFRDLGAQISWVTVFLTEYAGPLFIYLLFYFRVPFIYGHKYDFTSSRHTVVHLACICHSFHYIKRLLETLFVHRFSHGTMPLRNIFKNCTYYWGFAAWMAYYINHPLYTPPTYGAQQVKLALAIFVICQLGNFSIHMALRDLRPAGSKTRKIPYPTKNPFTWLFLLVSCPNYTYEVGSWIGFAIMTQCLPVALFSLVGFTQMTIWAKGKHRSYLKEFRDYPPLRMPIIPFLL
partner: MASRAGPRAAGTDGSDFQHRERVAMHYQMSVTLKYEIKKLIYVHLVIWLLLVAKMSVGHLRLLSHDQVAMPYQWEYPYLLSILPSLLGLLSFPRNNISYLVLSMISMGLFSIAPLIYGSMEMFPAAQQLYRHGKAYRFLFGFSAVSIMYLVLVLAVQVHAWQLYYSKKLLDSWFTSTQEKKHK
B4: Golgi SNAP receptor complex member 2 (Homo sapiens), O14653 (parent)
chain: B2 chain
partner: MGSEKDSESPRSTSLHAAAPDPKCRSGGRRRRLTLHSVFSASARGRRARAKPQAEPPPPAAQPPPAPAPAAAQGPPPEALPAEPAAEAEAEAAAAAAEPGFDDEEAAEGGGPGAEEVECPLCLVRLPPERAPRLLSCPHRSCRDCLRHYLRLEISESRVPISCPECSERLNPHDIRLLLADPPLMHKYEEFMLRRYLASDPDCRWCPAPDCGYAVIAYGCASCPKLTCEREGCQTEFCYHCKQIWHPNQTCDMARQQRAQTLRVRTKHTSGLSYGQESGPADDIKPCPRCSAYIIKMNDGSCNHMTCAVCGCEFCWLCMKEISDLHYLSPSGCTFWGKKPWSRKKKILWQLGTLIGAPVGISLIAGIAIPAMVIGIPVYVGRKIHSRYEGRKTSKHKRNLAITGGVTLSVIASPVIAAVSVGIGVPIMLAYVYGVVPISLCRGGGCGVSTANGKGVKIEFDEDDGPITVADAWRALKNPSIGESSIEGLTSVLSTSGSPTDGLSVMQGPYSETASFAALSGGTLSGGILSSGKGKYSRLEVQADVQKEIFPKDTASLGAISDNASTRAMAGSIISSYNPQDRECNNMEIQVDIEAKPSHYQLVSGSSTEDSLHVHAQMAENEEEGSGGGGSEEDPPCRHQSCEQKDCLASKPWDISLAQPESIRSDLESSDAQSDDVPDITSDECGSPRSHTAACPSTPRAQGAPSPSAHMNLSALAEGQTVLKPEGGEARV
B5: Golgi SNAP receptor complex member 2 (Homo sapiens), O14653 (parent)
chain: B2 chain
partner: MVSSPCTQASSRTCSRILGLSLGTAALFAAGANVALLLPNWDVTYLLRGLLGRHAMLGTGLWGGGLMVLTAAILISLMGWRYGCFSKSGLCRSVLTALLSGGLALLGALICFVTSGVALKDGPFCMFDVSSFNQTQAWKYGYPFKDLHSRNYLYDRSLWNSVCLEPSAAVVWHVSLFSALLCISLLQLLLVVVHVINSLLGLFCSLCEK
B6: Golgi SNAP receptor complex member 2 (Homo sapiens), O14653 (parent)
chain: B2 chain
partner: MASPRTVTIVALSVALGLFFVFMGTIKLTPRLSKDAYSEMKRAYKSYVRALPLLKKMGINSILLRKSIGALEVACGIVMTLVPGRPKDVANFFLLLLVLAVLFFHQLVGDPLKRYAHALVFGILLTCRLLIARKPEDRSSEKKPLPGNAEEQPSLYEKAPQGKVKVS
B7: Golgi SNAP receptor complex member 2 (Homo sapiens), O14653 (parent)
chain: B2 chain
partner: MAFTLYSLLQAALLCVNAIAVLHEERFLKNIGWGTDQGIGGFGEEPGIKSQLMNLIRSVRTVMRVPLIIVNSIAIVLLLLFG
B8: Ceroid-lipofuscinosis neuronal protein 6 (Homo sapiens), Q9NWW5 (parent)
chain: MEATRRRQHLGATGGPGAQLGASFLQARHGSVSADEAARTAPFHLDLWFYFTLQNWVLDFGRPIAMLVFPLEWFPLNKPSVGDYFHMAYNVITPFLLLKLIERSPRTLPRSITYVSIIIFIMGASIHLVGDSVNHRLLFSGYQHHLSVRENPIIKNLKPETLIDSFELLYYYDEYLGHCMWYIPFFLILFMYFSGCFTASKAESLIPGPALLLVAPSGLYYWYLVTEGQIFILFIFTFFAMLALVLHQKRKRLFLDSNGLFLFSSFALTLLLVALWVAWLWNDPVLRKKYPGVIYVPEPWAFYTLHVSSRH
partner: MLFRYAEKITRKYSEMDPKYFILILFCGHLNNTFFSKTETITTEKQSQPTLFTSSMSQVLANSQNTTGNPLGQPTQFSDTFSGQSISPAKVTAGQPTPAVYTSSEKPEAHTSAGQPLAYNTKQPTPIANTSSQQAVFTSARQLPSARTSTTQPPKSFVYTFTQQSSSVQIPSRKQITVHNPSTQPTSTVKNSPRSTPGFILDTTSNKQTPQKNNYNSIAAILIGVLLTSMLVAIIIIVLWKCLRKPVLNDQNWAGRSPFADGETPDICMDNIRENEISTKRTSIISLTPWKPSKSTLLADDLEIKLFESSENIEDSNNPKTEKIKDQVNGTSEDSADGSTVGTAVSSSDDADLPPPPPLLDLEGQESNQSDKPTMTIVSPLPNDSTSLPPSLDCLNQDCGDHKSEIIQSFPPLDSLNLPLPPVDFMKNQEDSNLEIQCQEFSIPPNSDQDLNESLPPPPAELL
B9: Ceroid-lipofuscinosis neuronal protein 6 (Homo sapiens), Q9NWW5 (parent)
chain: B8 chain
partner: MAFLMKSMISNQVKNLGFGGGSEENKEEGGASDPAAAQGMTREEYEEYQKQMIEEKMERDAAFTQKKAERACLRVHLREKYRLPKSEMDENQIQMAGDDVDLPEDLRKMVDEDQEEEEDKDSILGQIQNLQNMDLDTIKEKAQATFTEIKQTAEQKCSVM
B10: Catenin alpha-3 (Homo sapiens), Q9UI47-2 (parent)
chain: MSAETPITLNIDPQDLQVQTFTVEKLLEPLIIQVTTLVNCPQNPSSRKKGRSKRASVLLASVEEATWNLLDKGEKIAQEATVLKDELTASLEEVRKESEALKVSAERFTDDPCFLPKREAVVQAARALLAAVTRLLILADMIDVMCLLQHVSAFQRTFESLKNVANKSDLQKTYQKLGKELENLDYLAFKRQQDLKSPNQRDEIAGARASLKENSPLLHSICSACLEHSDVASLKASKDTVCEEIQNALNVISNASQGIQNMTTPPEPQAATLGSALDELENLIVLNPLTVTEEEIRPSLEKRLEAIISGAALLADSSCTRDLHRERIIAECNAIRQALQDLLSEYMNNAGKKERSNTLNIALDNMCKKTRDLRRQLRKAIIDHVSDSFLDTTVPLLVLIEAAKNGREKEIKEYAAIFHEHTSRLVEVANLACSMSTNEDGIKIVKIAANHLETLCPQIINAALALAARPKSQAVKNTMEMYKRTWENHIHVLTEAVDDITSIDDFLAVSGMFLFF
partner: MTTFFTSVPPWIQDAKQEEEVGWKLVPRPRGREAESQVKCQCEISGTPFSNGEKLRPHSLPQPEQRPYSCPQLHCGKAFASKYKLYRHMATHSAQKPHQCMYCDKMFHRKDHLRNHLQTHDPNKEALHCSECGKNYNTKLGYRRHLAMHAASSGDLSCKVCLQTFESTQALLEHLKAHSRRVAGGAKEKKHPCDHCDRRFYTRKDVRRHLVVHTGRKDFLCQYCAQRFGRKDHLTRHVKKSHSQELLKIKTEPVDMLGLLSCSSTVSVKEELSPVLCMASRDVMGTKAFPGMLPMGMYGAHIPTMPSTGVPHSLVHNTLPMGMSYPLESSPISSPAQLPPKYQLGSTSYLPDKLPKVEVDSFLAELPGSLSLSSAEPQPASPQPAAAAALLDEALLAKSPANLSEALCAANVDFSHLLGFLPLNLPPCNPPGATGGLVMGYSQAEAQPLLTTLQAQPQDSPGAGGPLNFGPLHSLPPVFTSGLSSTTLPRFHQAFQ

Variants of: B1
Conditions: with ubp25_human USP25, Q9UHP3
Chain of ubp25_human USP25, Q9UHP3 (Q9UHP3 whole entry): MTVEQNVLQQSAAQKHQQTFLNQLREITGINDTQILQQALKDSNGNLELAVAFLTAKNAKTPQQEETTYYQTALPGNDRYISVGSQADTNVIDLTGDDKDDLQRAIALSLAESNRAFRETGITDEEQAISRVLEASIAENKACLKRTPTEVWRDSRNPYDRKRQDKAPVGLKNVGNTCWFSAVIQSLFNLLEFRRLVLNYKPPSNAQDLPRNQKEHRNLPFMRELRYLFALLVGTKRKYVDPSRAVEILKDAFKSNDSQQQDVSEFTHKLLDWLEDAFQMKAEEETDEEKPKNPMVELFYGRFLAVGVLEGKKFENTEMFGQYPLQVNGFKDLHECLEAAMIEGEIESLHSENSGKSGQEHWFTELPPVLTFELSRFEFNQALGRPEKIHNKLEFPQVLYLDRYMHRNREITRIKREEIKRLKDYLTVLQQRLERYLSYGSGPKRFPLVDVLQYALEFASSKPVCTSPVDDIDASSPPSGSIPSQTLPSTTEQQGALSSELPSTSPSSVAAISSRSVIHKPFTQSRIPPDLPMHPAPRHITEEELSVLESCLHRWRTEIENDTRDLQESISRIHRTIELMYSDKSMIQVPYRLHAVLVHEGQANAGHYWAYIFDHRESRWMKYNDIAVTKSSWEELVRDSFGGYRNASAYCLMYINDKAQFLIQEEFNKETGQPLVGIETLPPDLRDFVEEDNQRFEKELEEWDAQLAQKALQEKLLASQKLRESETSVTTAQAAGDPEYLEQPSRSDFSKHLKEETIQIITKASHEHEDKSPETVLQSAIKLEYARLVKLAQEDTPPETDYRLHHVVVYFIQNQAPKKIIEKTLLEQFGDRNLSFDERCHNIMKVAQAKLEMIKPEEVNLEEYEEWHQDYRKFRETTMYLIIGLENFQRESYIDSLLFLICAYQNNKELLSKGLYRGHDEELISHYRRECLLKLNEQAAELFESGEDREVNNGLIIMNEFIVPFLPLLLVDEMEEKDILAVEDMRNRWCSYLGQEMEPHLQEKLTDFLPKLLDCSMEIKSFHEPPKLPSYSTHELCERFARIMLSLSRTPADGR

effect of a mutation on the interaction	Variant
with no effect	Y371H
with no effect	I91V

Variants of: B1
Conditions: with ar13b_human ARL13B

effect of a mutation on the interaction	Variant
with no effect	Y371H
with no effect	I91V

Variants of: B1
Conditions: with FGA

effect of a mutation on the interaction	Variant
with no effect	Y371H
with no effect	I91V

Variants of: B1
Conditions: with PCYT1B

effect of a mutation on the interaction	Variant
with no effect	Y371H
with no effect	I91V

Variants of: B1
Conditions: with zch12_human ZCCHC12, Q6PEW1
Chain of zch12_human ZCCHC12, Q6PEW1 (Q6PEW1 whole entry): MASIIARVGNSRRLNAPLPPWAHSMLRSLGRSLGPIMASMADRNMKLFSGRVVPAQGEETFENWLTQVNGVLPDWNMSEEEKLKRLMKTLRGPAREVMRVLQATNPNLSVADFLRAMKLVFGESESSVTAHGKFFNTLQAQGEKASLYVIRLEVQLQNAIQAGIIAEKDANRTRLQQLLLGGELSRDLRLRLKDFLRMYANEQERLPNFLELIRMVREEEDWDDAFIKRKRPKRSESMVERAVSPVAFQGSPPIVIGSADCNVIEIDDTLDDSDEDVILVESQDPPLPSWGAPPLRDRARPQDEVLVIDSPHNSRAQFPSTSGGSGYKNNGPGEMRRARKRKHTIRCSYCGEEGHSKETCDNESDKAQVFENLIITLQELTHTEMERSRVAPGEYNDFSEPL

effect of a mutation on the interaction	Variant
with no effect	Y371H
with no effect	I91V

Variants of: B2
Conditions: with blcap_human BLCAP

effect of a mutation on the interaction	Variant
with no effect	G144W

Variants of: B3
Conditions: with jagn1_human JAGN1, Q8N5M9

effect of a mutation on the interaction	Variant
with no effect	P182L

Variants of: B4
Conditions: with rn19b_human RNF19B

effect of a mutation on the interaction	Variant
with no effect	G144W

Variants of: B5
Conditions: with TM4SF19, Q96DZ7

effect of a mutation on the interaction	Variant
with no effect	G144W

Variants of: B6
Conditions: with nacho_human TMEM35A

effect of a mutation on the interaction	Variant
with no effect	G144W

Variants of: B7
Conditions: with ir3ip_human IER3IP1, Q9Y5U9

effect of a mutation on the interaction	Variant
with no effect	G144W

Variants of: B8
Conditions: with EVI2B

effect of a mutation on the interaction	Variant
with no effect	L47F
with no effect	R6T
with no effect	G123D

Variants of: B9
Conditions: with cplx4_human CPLX4, Q7Z7G2

effect of a mutation on the interaction	Variant
with no effect	G123D
with no effect	L47F
with no effect	R6T

Variants of: B10
Conditions: with plal2_human PLAGL2, Q9UPG8

effect of a mutation on the interaction	Variant
disrupting interaction strength	V94D
